Kd data for one substance are collected here from publication PMC9321382.

Holding throughout (assay): EMSA
What all share (details): EMSA: 5 nM pUC19, 30 min at room temperature, pH 7.0, 50 mM MOPS/50 mM NaCl (low) or 200 mM MOPS/200 mM NaCl (high); 1% agarose in TAE

For data set [1], the system named is EncA encapsulin shell (Myxococcus xanthus).
Data set [2] concerns EncA encapsulin shell;EncC cargo protein (Myxococcus xanthus;Myxococcus xanthus).
The test system of data set [3] is EncA encapsulin shell (Myxococcus xanthus). This is another data set of the same source.
In data set [4] the test system is EncA encapsulin shell;EncC cargo protein (Myxococcus xanthus;Myxococcus xanthus). The source holds these as a separate data set.

In the case of pUC19 supercoiled plasmid, the Kd in data set [1] is 300 nM; in data set [2], 400 nM; in data set [3], 300 nM; in data set [4], 300 nM.

As usually defined, the Kd is the free concentration of one partner at which half of the binding sites on the other are occupied at equilibrium, for simple one-to-one binding. The low end stands for higher affinity, the high end for lower affinity.
